Source: patent US10874724B2, “Enzymatic immunomodulation of solid tumors and uses thereof” (University of Houston System, priority 2015, dated 2020)

Experiments:
4T1 cells = test: Wound healing assay; format: cell-based; settings: 10 μM Adenosine or 50 μM ADA or both; wound area at 48 hrs
Procedure: Briefly, 4T1 cells were cultured to confluence in 35 mm dishes in triplicates. 12 hrs later cell were rinsed with PBS and starved in low serum media (1.5 ml; 0.5%-0.1% serum in RPMI) overnight. […] Pictures were taken immediately of the wound area in phase contrast and 10× and another at 48 hrs. Wound area was calculated using imagej and plotted.

HT29 cells = test: Effect of cAdo on cell proliferation (WST 1); format: cell-based; settings: cAdo at 10 μM and above, WST 1 after 5 days
Procedure: 10^4 cells were seeded in 96 well dish in 100 μl. 12 hrs later the cells were treated with […] and 50 μM of cAdo and the cells were later assayed for cell number quantitatively using WST 1 reagent after 5 days. Briefly 10 μl of WST1 reagent was added to each well. The cells were incubated for 4 hrs. OD was measured using microtiter plate reader at 460 nm.

[1] = intramuscular injection; cited from earlier work
[2] = Stability of mADA enzymatic activity in cell culture medium; format: physicochemical; settings: culture medium of 4T1, MCF7 and T47D cells; supernatant after 24 h, 48 h and 72 h; even after 3 days
Procedure: 4T1, MCF7 and T47D cells (1×10^5) were grown in 96 wells culture dish.

[3] = Enzyme activity of mADA-His and mADA-Fc (Adenosine Deaminase Assay Kit); format: biochemical; settings: supernatant media of transfected HEK293F cells; OD at 550 nm
Procedure: Enzyme activity of mADA-His and mADA-Fc was assayed with Adenosine Deaminase Assay Kit (BQ 014-EALD). Briefly the 180 μl of reagent 1 was added to 96-well plate. Followed by 5 μl of supernatant media obtained from HEK293F cells transfected with mADA-His or mADA-Fc. Later 90 μl of reagent was added to each well and incubated for 8 mins at 37° C. The OD was measured at 550 nm.

Molecule: Nc1ncnc2c1ncn2[C@@H]1O[C@H](CO)[C@@H](O)[C@H]1O [Ado, adenosine, reference compound]
- Wound healing ability of 4T1 cells (4T1 cells): marginally promoted wound healing

Molecule: Nc1nc(Cl)nc2c1ncn2[C@@H]1O[C@H](CO)[C@@H](O)[C@H]1O [cAdo, 2-chloro Ado]
- Rate of cell proliferation (HT29 cells): marginal increase

B1: ADA: Adenosine deaminase (EC 3.5.4.4), enzyme degrading Ado into inosine and ammonia (protein, UniProt P00813 2-363, looked up)
Adenosine deaminase: AQTPAFDKPKVELHVHLDGSIKPETILYYGRRRGIALPANTAEGLLNVIGMDKPLTLPDFLAKFDYYMPAIAGCREAIKRIAYEFVEMKAKEGVVYVEVRYSPHLLANSKVEPIPWNQAEGDLTPDEVVALVGQGLQEGERDFGVKARSILCCMRHQPNWSPKVVELCKKYQQQTVVAIDLAGDETIPGSSLLPGHVQAYQEAVKSGIHRTVHAGEVGSAEVVKEAVDILKTERLGHGYHTLEDQALYNRLRQENMHFEICPWSSYLTGAWKPDTEHAVIRLKNDQANYSLNTDDPLIFKSTLDTDYQMTKRDMGFTEEEFKRLNINAAKSSFLPEDEKRELLDLLYKAYGMPPSASAGQNL
- Wound healing ability of 4T1 cells (4T1 cells): did not alter the wound healing ability

B2: bADA: bovine adenosine deaminase; PEGylated bADA is FDA approved (protein, UniProt P56658 2-363, looked up)
Adenosine deaminase: AQTPAFNKPKVELHVHLDGAIKPETILYYGRKRGIALPADTPEELQNIIGMDKPLSLPEFLAKFDYYMPAIAGCREAVKRIAYEFVEMKAKDGVVYVEVRYSPHLLANSKVEPIPWNQAEGDLTPDEVVSLVNQGLQEGERDFGVKVRSILCCMRHQPSWSSEVVELCKKYREQTVVAIDLAGDETIEGSSLFPGHVKAYAEAVKSGVHRTVHAGEVGSANVVKEAVDTLKTERLGHGYHTLEDATLYNRLRQENMHFEVCPWSSYLTGAWKPDTEHPVVRFKNDQVNYSLNTDDPLIFKSTLDTDYQMTKNEMGFTEEEFKRLNINAAKSSFLPEDEKKELLDLLYKAYGMPSPASAEQCL
- Toxicity [1]: not shown any toxicity

B3: mADA: recombinant purified mouse adenosine deaminase (protein, UniProt P03958 2-352, looked up)
Adenosine deaminase: AQTPAFNKPKVELHVHLDGAIKPETILYFGKKRGIALPADTVEELRNIIGMDKPLSLPGFLAKFDYYMPVIAGCREAIKRIAYEFVEMKAKEGVVYVEVRYSPHLLANSKVDPMPWNQTEGDVTPDDVVDLVNQGLQEGEQAFGIKVRSILCCMRHQPSWSLEVLELCKKYNQKTVVAMDLAGDETIEGSSLFPGHVEAYEGAVKNGIHRTVHAGEVGSPEVVREAVDILKTERVGHGYHTIEDEALYNRLLKENMHFEVCPWSSYLTGAWDPKTTHAVVRFKNDKANYSLNTDDPLIFKSTLDTDYQMTKKDMGFTEEEFKRLNINAAKSSFLPEEEKKELLERLYREYQ
- ADA enzyme activity in cell culture medium [2]: retained its activity

B4: mADA-His: mADA with His tag expressed in HEK293F cells, purified with Ni-NTA column (protein, UniProt P03958 2-352, looked up)
Adenosine deaminase: B3 Adenosine deaminase
modifications: His tag
- Enzyme activity in supernatant [3]: enzymatically active
